The target in this series is CTD (nucleocapsid C-terminal RNA binding domain) (SARS-CoV-2, UniProt P0DTC9 247-364). Kind of series: ITC. (In general: ITC needs no label: the signal is the heat of the interaction.)

The Kd is the equilibrium constant for the complex coming apart. Low readings indicate a tighter complex, high ones a looser complex. GGUUCACCGAGGCCACGCGGAGUACGAUCGAGUGUACAGUGAACC (structured_RNA) [s2m-CoV-2]: binding was characterised by a dissociation constant (Kd) of 600 ± 200 nM.

Values taken from publication PMC10201421.
